The results in this text go back to EP4806514A2 (Lepu Biopharma Co., Ltd., dated 2025).

Positions count from the first letter of the chain named.

The chains are these.
T1: hCDH17-his (full length extracellular domain of human CDH17, Q23-M787, his tag at the C-terminal) (human, UniProt Q12864 23-787)
T1 construct: Limits of the construct (UniProt Q12864, Q23-M787, C-terminal his tag); also called human CDH17-his protein; human CDH17 protein
T1 sequence: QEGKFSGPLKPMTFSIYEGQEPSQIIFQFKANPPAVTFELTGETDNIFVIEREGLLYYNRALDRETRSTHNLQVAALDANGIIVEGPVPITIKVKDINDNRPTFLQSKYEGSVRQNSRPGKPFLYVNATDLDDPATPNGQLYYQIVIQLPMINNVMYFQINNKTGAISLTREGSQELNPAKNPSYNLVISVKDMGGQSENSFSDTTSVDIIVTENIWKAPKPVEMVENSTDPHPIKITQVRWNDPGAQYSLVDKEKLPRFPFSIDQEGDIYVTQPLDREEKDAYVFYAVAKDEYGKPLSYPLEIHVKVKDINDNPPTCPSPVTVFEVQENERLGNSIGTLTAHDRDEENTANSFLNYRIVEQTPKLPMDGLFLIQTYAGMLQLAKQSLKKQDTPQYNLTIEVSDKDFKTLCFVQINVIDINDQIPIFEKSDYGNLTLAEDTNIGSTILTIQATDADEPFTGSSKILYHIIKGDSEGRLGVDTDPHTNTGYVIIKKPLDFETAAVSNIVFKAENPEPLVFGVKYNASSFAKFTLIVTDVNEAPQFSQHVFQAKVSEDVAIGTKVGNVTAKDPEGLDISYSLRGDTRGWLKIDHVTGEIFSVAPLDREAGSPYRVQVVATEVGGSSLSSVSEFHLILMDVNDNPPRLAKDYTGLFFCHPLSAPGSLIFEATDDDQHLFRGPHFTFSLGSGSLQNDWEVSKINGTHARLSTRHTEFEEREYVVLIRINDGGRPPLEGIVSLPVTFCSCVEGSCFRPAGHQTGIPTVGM

T2: human CDH17, full length, expressed on cells (HEK293-hCDH17); AsPC-1, HCT-8, AGS, LoVo, KATO III, HT-29 tumor … (human, UniProt Q12864 23-832)
T2 construct: also called human CDH17 expressed on tumor cells
T2 sequence: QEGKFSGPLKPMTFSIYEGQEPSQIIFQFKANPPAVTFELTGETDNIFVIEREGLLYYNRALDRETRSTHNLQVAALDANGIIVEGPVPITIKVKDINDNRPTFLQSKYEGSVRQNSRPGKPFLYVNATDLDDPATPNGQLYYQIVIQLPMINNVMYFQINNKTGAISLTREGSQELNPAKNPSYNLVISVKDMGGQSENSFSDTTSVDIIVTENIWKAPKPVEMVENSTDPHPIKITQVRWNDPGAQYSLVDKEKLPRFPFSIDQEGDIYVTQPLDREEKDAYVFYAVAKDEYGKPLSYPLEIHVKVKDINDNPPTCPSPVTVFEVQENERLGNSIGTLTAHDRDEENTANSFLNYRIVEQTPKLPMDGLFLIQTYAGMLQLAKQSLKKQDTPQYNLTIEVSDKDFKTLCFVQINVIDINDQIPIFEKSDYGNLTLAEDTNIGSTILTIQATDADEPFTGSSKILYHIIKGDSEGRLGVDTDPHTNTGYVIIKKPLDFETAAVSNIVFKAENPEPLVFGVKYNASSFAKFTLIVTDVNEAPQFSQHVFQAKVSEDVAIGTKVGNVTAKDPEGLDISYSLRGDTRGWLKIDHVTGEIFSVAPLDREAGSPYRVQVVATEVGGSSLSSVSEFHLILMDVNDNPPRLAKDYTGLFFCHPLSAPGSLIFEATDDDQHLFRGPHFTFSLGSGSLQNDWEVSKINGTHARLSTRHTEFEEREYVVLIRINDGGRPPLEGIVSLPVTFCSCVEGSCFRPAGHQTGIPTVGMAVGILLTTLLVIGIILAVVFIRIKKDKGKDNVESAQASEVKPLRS

B1: 29H8D3-z12p1 (antibody, V domains shown)
VH: QVQLVQSGAEVKKPGASVKVSCKASGYTFTDHTIHWMRQRPGQGLEWIGYIYPREGYTKYNEKFKDRATLTADTSTSTAYMELRSLRSDDTAVYYCARFYYGYWYFDVWGQGTTVTVSS
VL: DIVMTQSPLSLPVTPGEPASISCRSSKSLLRSNGNTYLYWFLQKPGQSPQVLIYRMSNLASGVPDRFSGSGSGTDFTLKISRVEAEDVGVYYCMQHLEYPFTFGQGTKLEIK
notes: PTM-removed variant of 29H8D3-z12
B2: 29H8D3-z12p10 (antibody, V domains shown)
VH: B1 VH with E55D
VL: B1 VL with M94K
notes: PTM-removed variant of 29H8D3-z12; VH is that of 29H8D3-z12
B3: 29H8D3-z12p9 (antibody, V domains shown)
VH: B1 VH with E55D
VL: B1 VL with M94H
notes: as for B1
B4: 29D2D7-z19 (antibody, V domains shown)
VH: QVQLVQSGAEVKKPGASVKVSCKASGYTFTDYDMHWVKQAPGQGLEWIGGFDPESAGTVYNLRFKDKATLTADKSTSTAYMELRSLRSEDTAVYYCARKGYYSVSSPFTYWGQGTLVTVSS
VL: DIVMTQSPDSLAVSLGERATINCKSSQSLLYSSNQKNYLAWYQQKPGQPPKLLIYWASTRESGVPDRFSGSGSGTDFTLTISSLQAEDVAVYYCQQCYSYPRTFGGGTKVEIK
notes: Humanized, human IgG1 constant region
B5: 69E3H11-z12 (antibody, V domains shown)
VH: QVQLVQSGAEVKKPGASVKVSCKASGYTFTTYWMHWVKQAPGQRLEWIGEIDPSDSYANYNQKFKGKATLTVDKSASTAYMELSSLRSEDTAVYYCALYYGYGDWGQGTTVTVSS
VL: EIVLTQSPGTLSLSPGERATLSCSVSSSISSIHLHWYQQKPGQAPRLLIYRTSNLASGIPDRFSGSGSGTDFTLTISRLEPEDFAVYYCQQGSNLPLTFGQGTRLEIK
notes: Humanized, human IgG1 constant region; also called 69E3H11 HU-VH1-3 / HU-VL2-0
B6: 69E3H11-z10 (antibody, V domains shown)
VH: B5 VH
VL: EIVLTQSPDFQSVTPKEKVTITCSVSSSISSIHLHWYQQKPDQSPKLLIKRTSNLASGVPSRFSGSGSGTDFTLTINSLEAEDAATYYCQQGSNLPLTFGQGTRLEIK
notes: Humanized, human IgG1 constant region; also called 69E3H11 HU-VH1-3 / HU-VL1-0
B7: 61C7F12-z2 (antibody, V domains shown)
VH: EVQLVESGGGLVKPGGSLRLSCAASGFTFSSYAMSWVRQAPGKGLEWVSTINIGGSYTYYPDSVKGRFTISRDNAKNSLYLQMNSLRAEDTAVYYCARQEGRYWYFDVWGQGTTVTVSS
VL: DIQLTQSPSFLSASVGDRVTITCTASSSVSSSYLHWYQQKPGKAPKLWIYSTSNLASGVPSRFSGSGSGTEYTLTISSLQPEDFATYYCHQFHRSPYTFGGGTKVEIK
notes: Humanized, human IgG1 constant region; also called 61C7F12 HU-VH1-0 / HU-VL1-1
B8: 61C7F12-z9 (antibody, V domains shown)
VH: B7 VH
VL: EIVLTQSPGTLSLSPGERATLSCTASSSVSSSYLHWYQQKPGQAPRLLIYSTSNLASGIPDRFSGSGSGTDFTLTISRLEPEDFAVYYCHQFHRSPYTFGGGTKVEIK
notes: Humanized, human IgG1 constant region; also called 61C7F12 HU-VH1-0 / HU-VL2-0
B9: 61C7F12-z6 (antibody, V domains shown)
VH: B7 VH with S49A
VL: B7 VL
notes: Humanized, human IgG1 constant region; also called 61C7F12 HU-VH1-1 / HU-VL1-1
B10: 61C7F12-z8 (antibody, V domains shown)
VH: B7 VH with S49A
VL: B7 VL with D1Q, Q3V, A44S, E71S, T73S
notes: Humanized, human IgG1 constant region; also called 61C7F12 HU-VH1-1 / HU-VL1-3
B11: 61C7F12-z7 (antibody, V domains shown)
VH: B7 VH with S49A
VL: B7 VL with Q3V, A44S, T73S
notes: Humanized, human IgG1 constant region; also called 61C7F12 HU-VH1-1 / HU-VL1-2
B12: 61C7F12-z5 (antibody, V domains shown)
VH: B7 VH with S49A
VL: B7 VL with W48L, Y72F
notes: Humanized, human IgG1 constant region; also called 61C7F12 HU-VH1-1 / HU-VL1-0
B13: 61C7F12-z10 (antibody, V domains shown)
VH: B7 VH with S49A
VL: B8 VL
notes: Humanized, human IgG1 constant region; also called 61C7F12 HU-VH1-1 / HU-VL2-0
B14: 61C7F12-z1 (antibody, V domains shown)
VH: B7 VH
VL: B7 VL with W48L, Y72F
notes: Humanized, human IgG1 constant region; also called 61C7F12 HU-VH1-0 / HU-VL1-0
B15: 61C7F12-z4 (antibody, V domains shown)
VH: B7 VH
VL: B7 VL with D1Q, Q3V, A44S, E71S, T73S
notes: Humanized, human IgG1 constant region; also called 61C7F12 HU-VH1-0 / HU-VL1-3
B16: 61C7F12-z3 (antibody, V domains shown)
VH: B7 VH
VL: B7 VL with Q3V, A44S, T73S
notes: Humanized, human IgG1 constant region; also called 61C7F12 HU-VH1-0 / HU-VL1-2
B17: 29H8D3-z21 (antibody, V domains shown)
VH: B1 VH with M37V, R40A, I48M, E55D, A68V, L70M, A72T
VL: B1 VL with D75A, Q105A
notes: as for B4
B18: 29H8D3-z19 (antibody, V domains shown)
VH: B1 VH with R40A, E55D, L70M, A72T
VL: B1 VL with D75A
notes: as for B4
B19: 29H8D3-z20 (antibody, V domains shown)
VH: B1 VH with E55D
VL: B1 VL with D75A
notes: as for B4
B20: 29H8D3-z17 (antibody, V domains shown)
VH: B1 VH with M37V, R40A, I48M, E55D, A68V, L70M, A72T
VL: B1 VL with D75A
notes: as for B4
B21: 29H8D3-z22 (antibody, V domains shown)
VH: B1 VH with M37V, R40A, E55D, L70M, A72T
VL: B1 VL with D75A, Q105A
notes: as for B4
B22: 29H8D3-z23 (antibody, V domains shown)
VH: B1 VH with R40A, E55D, L70M, A72T
VL: B1 VL with D75A, Q105A
notes: as for B4
B23: 29H8D3-z18 (antibody, V domains shown)
VH: B1 VH with M37V, R40A, E55D, L70M, A72T
VL: B1 VL with D75A
notes: as for B4

The first test deals with T1, hCDH17-his (full length extracellular …). Briefly: SPR (Biacore 8K), two doses, antibody captured on Protein A chip, hCDH17-his at 25 nM and 100 nM. In general terms: Surface plasmon resonance follows binding to a sensor surface in real time, without labels.
On to B1, for which the binding result was “binds”.

As to B2, the binding result was “binds”.

B3: the binding result was “binds”.

The target of the next test is T2, human CDH17, full length, expressed on …. Nature of the test: flow cytometry, HEK293-hCDH17 cells. Background: In flow cytometry, cells or beads pass a laser one at a time.
With B4, the binding result is given as “binds”.

For B5, the binding result was “binds”.

Turning to B6, the binding result is on record as “binds”.

Regarding B7, the binding result is given as “binds”.

As for B8, the binding result is listed as “binds”.

B9: the binding result was “binds”.

As to B10, the binding result is reported as “binds”.

As to B11, the binding result is on record as “binds”.

In the case of B12, the binding result was “binds”.

For the molecule B13, the binding result is “binds”.

With B14, the binding result is on record as “binds”.

For B15, the binding result is given as “binds”.

Consider B16, for which the binding result is “binds”.

A further test addresses T1, hCDH17-his (full length extracellular …). Briefly: SPR (Biacore 8K), antibody captured on Protein A chip, hCDH17-his injected.
In the case of B4, the binding result is “binds”.

On to B5, for which the binding result is recorded as “binds”.

On to B7, for which the binding result was “binds”.

With B8, the binding result is reported as “binds”.

Regarding B10, the binding result is “binds”.

For B13, the binding result is given as “binds”.

In the case of B14, the binding result is on record as “binds”.

As for B16, the binding result was “binds”.

As for B17, the binding result is on record as “binds”.

B18: the binding result is reported as “binds”.

On to B19, for which the binding result was “binds”.

For B20, the binding result was “binds”.

On to B21, for which the binding result was “binds”.

As to B22, the binding result was “binds”.

As for B23, the binding result is on record as “binds”.
